This experiment concerns the target death receptor 5 (DR5) on the cell surface (human) (UniProt O14763). The experiment in a line: cell-based or functional assay.

“wild-type TRAIL (recombinant human soluble TRAIL, amino acids 114-281) (from UniProt P50591 114-281) (ligand)”: the TRAIL-mediated death of Colo205 cells in the presence of neutralizing anti-DR5 antibody worked out at 3 fold and the incubation time of Colo205 cells with 30 ng/ml ligand needed for a comparable level of pro-caspase-8 processing (Western blot) was determined as 60 min.

For the origin of these results see patent US20110165265A1, “TRAIL VARIANTS FOR TREATING CANCER” (FUNDACIÓ GENÒMICA (CRG), priority 2007, published 2011).
